The record followed here is patent US20250129166A1 (Five Prime, published 2025).

To fix the notation:
T1: human VISTA on cells (endogenous on human monocytes and AML3 cells; ectopic full-length on 293T cells) (human, UniProt Q9H7M9 33-311)
T1 sequence (looked up): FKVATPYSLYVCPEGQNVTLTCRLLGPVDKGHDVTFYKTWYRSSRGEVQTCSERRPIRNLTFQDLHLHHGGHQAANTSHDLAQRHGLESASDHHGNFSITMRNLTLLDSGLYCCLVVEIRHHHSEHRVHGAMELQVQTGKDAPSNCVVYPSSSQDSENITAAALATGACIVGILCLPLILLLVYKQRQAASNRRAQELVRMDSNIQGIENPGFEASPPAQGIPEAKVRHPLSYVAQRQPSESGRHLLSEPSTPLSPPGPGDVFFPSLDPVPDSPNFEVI

T2: hVISTA multimer: monobiotinylated hVISTA ECD (Phe 33-Ala 194, Accession #AAH20568, polyhistidine) loaded on … (human, UniProt Q9H7M9 33-194, limits assumed, monobiotinylated; loaded at a 28:1 molar ratio onto PE-conjugated streptavidin dextramers)
T2 construct: also called hVISTA-loaded dextramers; recombinant VISTA multimer
T2 sequence (looked up): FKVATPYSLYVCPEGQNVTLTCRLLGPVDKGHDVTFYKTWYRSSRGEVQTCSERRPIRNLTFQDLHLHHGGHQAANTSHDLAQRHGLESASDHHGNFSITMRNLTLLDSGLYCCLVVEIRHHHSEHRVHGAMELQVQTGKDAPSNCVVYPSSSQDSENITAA

B1: P1-061029.IgG1.3 (antibody)
heavy: EVQLVESGGGLVQPGKSLRLSCAASGFTLDDYAMHWVRQAPGKGLEWVSGINWNSANIGYADSVKGRFTISRDNAKNSLYLQMNSLRTEDTALYYCAKVPGYSGGWIDAFDVWGQGTMVTVSSASTKGPSVFPLAPSSKSTSGGTAALGCLVKDYFPEPVTVSWNSGALTSGVHTFPAVLQSSGLYSLSSVVTVPSSSLGTQTYICNVNHKPSNTKVDKRVEPKSCDKTHTCPPCPAPEAEGAPSVFLFPPKPKDTLMISRTPEVTCVVVDVSHEDPEVKFNWYVDGVEVHNAKTKPREEQYNSTYRVVSVLTVLHQDWLNGKEYKCKVSNKALPAPIEKTISKAKGQPREPQVYTLPPSREEMTKNQVSLTCLVKGFYPSDIAVEWESNGQPENNYKTTPPVLDSDGSFFLYSKLTVDKSRWQQGNVFSCSVMHEALHNHYTQKSLSLSPG
light: not shown
notes: IgG1.3 = effectorless IgG1 (L234A, L235E, G237A); also called P1-061029 (parent); P1-061029 hIgG1.3f
B2: P1-068767_E55A_D102V (antibody, human IgG1, kappa, V domains shown)
VH: EVQLVESGGGLVQPGKSLRLSCAASGFTLEDYAMHWVRQAPGKGLEWVSGIDWNSANIGYADSVKGRFTISRDNAKNSLYLQMNSLRTEDTALYYCAKVPGYSGGWIDAEDVWGQGTMVTVSS
VL: not shown
notes: also called P1-070932
B3: P1-068767_D102V (antibody, human IgG1, kappa, V domains shown)
VH: B2 VH with A56E
VL: not shown
notes: also called P1-070912
B4: P1-068767_E30D_D102V (antibody, human IgG1, kappa, V domains shown)
VH: B2 VH with E30D, A56E
VL: not shown
notes: also called P1-070926
B5: P1-068767_D52N_D102V (antibody, human IgG1, kappa, V domains shown)
VH: B2 VH with D52N, A56E
VL: not shown
notes: also called P1-070930
B6: P1-068767_E100fF_D102V (antibody, human IgG1, kappa, V domains shown)
VH: B2 VH with A56E, E110F
VL: not shown
notes: also called P1-070920
B7: P1-070908 (P1-068767_E55A) IgG1.3 (antibody, V domains shown)
VH: B2 VH with V112D
VL: not shown
notes: IgG1.3
B8: P1-070906 (P1-068767_D52N) IgG1.3 (antibody, V domains shown)
VH: B2 VH with D52N, A56E, V112D
VL: not shown
notes: IgG1.3
B9: P1-070916 (P1-068767_D52N_E55A) IgG1.3 (antibody, V domains shown)
VH: B2 VH with D52N, V112D
VL: not shown
notes: IgG1.3
B10: P1-068761.IgG1.3 (antibody)
heavy: B1 heavy with D30E, Y32E, A56E, N57E, G104H, F110E
light: not shown
notes: IgG1.3; also called P1-068761 hIgG1.3f; P1-0687617
B11: VISTA.5 (mAb1) (antibody, V domains shown)
VH: AVQLQESGPGLVRPSQSLSLTCTVTDYSITSDYAWNWIRQFPGSKLEWLGFIGYSGNTNYNPSLESRISITRHTSKNQFFLHLNSMTTEDTATYYCARSLYGGSHWYFDVWGAGTTVTVSS
VL: DIVLTQSPASLAVSLGQRATISCRGSESVEYYGTILMQWYQQKPGQPPKLLIYGASNVESGVPARFSGSGSGTDFSLNIHPVEEDDIAMYFCQQSRKVPWTFGGGTKLEIK

Residue numbers refer to the chain shown, from its start. In names and notes the source's numbering stands.

The target in the first assay is T3, monovalent hVISTA-ECD (amino acids 32-193 of SEQ ID NO: 1 with a 7xHis tail) (human, UniProt Q9H7M9 33-193).
T3 construct: also called huVISTA-His; human VISTA-ECD
Briefly: SPR, mAb on Protein A, 37C, pH 7.4. On the procedure:
(§1) Binding of several preparations of each of the '029 progeny clones and of the parent '029 antibodies, formatted as IgG1.3 antibodies, to human VISTA at pH 6.0 and 7.4 was measured by Surface plasmon resonance (SPR). SPR analysis was performed to measure koff and KD binding affinity measurements for VISTA Abs at acidic and neutral pHs using a Biacore® T100 instrument (GE Healthcare). Protein A (ThermoFisher Scientific catalog #21181) was diluted to 20 μg/ml in 10 mM sodium acetate pH 4.5 and immobilized onto flow cells of a CM5 biosensor following the manufacturer's amine coupling protocol (GE Healthcare), targeting 2,000 RU immobilization density of Protein A per flow cell. SPR experiments were conducted at 37° C. using PBST (137 mM sodium chloride, 2.7 mM potassium chloride, 10 mM phosphate buffer, 0.05% Tween® 20) running buffer at pH 7.4 and 6.0. Antibodies were diluted to 25 nM in PBST pH 7.4, and were captured across active biosensor flow cells at 5 ul/min for 60 seconds. A concentration series of 50-5 nM monovalent hVISTA-ECD (SEQ ID NO: 325) was prepared in pH 7.4 and 6.0 running buffers, and was injected over the captured antibodies at 40 ul/min to measure association and dissociation. Two 15 second injections of 10 mM glycine pH 1.5 were used to regenerate the Protein A capture surface between assay cycles. Rate constants ka (kₒₙ) and kd (koff) were derived from reference flow cell and 0 nM blank-subtracted sensorgrams, and were fit to a 1:1 binding model in Biacore® T200 Evaluation Software v.2.0. The affinity constant, KD was calculated as the ratio of rate constants koff/kₒₙ for each VISTA antibody.
Background: In SPR one partner is held on a chip, and binding of the other changes the refractive index at the surface.
Consider B1, for which the Kd (usually the concentration at which binding is half-saturated) turned out to be 36 nM and the kon (in general, the rate constant with which the complex forms) is 180000 M⁻¹ s⁻¹.

The target of a further assay is T3, monovalent hVISTA-ECD (amino acids …). Briefly: SPR, mAb captured on Protein A, hVISTA-ECD analyte, 37 C, pH 6.0. How it is done: (§2) Binding kinetics were measured using a Biacore® T100 instrument (GE Healthcare). Protein A (ThermoFisher Scientific catalog #21181) was diluted to 20 μg/ml in 10 mM sodium acetate pH 4.5 and immobilized onto flow cells of a CM5 biosensor following the manufacturer's amine coupling protocol (GE Healthcare), targeting 2,000 RU immobilization density of Protein A per flow cell. The assay was conducted at 37° C. using PBST (137 mM sodium chloride, 2.7 mM potassium chloride, 10 mM phosphate buffer, 0.05% Tween 20) running buffer at pH 7.4, 6.7 and 6.0. Antibodies were diluted to 25 nM in PBST pH 7.4, and were captured across active biosensor flow cells at 5 ul/min for 40 seconds. A concentration series of 100-10 nM monovalent hVISTA-ECD (SEQ ID NO: 325) was prepared in pH 7.4, 6.7 and 6.0 running buffers, and was injected over the captured antibodies at 40 ul/min to measure association and dissociation. Two 15 second injections of 10 mM glycine pH 1.5 were used to regenerate the Protein A capture surface between assay cycles. Rate constants ka (kon) and kd (koff) were derived from reference flow cell and 0 nM blank-subtracted sensorgrams, and were fit to a 1:1 binding model in Biacore® T200 Evaluation Software v.2.0.
(§3) The affinity constant, KD was calculated as the ratio of rate constants koff/kₒₙ for each VISTA antibody. The % Rmax was calculated to compare how pH affects an antibody's binding capacity for VISTA, and represents the measured maximal VISTA binding response relative to the expected maximal VISTA binding response. The % Rmax is defined as the ratio of the reference-subtracted ‘binding’ report point response at the end of the 100 nM VISTA injection for each antibody (Rmax) relative to the expected VISTA binding response (Rexp). Rexp is calculated as Rexp=[(VISTA-ECD molecular weight/mAb molecular weight)×(mAb ‘capture’ report point response (RUs)]×2 binding sites per mAb.
For B1, the koff (in general, the first-order rate constant of dissociation) was found to be 0.0082 s⁻¹.

The target is the same in another assay. Briefly: SPR, mAb captured on Protein A, hVISTA-ECD analyte, 37 C, pH 7.4. On the procedure: as §2, §3
With B2, the koff was determined as 0.01 s⁻¹.
The same measure, in the same setting: under B3 stands 0.0092 s⁻¹; under B4, 0.011 s⁻¹.
Still for that read-out and setting: under B5 stands 0.0067 s⁻¹; under B6, 0.0083 s⁻¹.

For the next assay the target is unchanged. Briefly: SPR, mAb on Protein A, 37C, pH 6.0; pH 6.0. On the procedure:
as §1
B7 yielded a Kd of 11 nM, a koff of 0.0025 s⁻¹ and a kon of 220000 M⁻¹ s⁻¹.
The like results for B8 were, in that order, 6.7 nM, 0.0016 s⁻¹ and 240000 M⁻¹ s⁻¹.
The like results for B9 were, in that order, 7.4 nM, 0.0017 s⁻¹ and 230000 M⁻¹ s⁻¹.

The next assay shares this target. Briefly: SPR, mAb captured on Protein A, hVISTA-ECD analyte, 37 C, pH 6.7. On the procedure:
as §2, §3
On to B1, for which the koff came out at 0.0044 s⁻¹.
In turn, B10 had a koff of 0.0066 s⁻¹.

The target of the next assay is T1, human VISTA on cells (endogenous on …). Briefly: cell-based or functional assay.
Regarding B11, the “EC50 of AML3 cell viability (Cell Titer Glo), endolysosome-dependent secondary antibody drug conjugate killing assay” value was determined as 0.485 µg/mL.

The target in a further assay is T2, hVISTA multimer: monobiotinylated …. Briefly: blocking of VISTA multimer binding to activated human CD4+ T cells, flow cytometry, pH 6.0. On the procedure: As a control, activated CD4+ T cells were stained with PE-conjugated streptavidin dextramers that were not loaded with hVISTA. The stained cells were washed with HBSS+MES and acquired on a flow cytometer. Data were analyzed using FlowJo™ software (BD Biosciences). […] Left, from darker gray to lighter, the filled histograms depict binding at pH 7.0, 6.5, 6.4, 6.3, 6.1, and 6.0. Some histograms are labeled with their corresponding pH. Non-VISTA control multimer binding at pH 6.0 is shown as the unfilled histogram. Right, graphed PE mean fluorescence intensities (MFI) of CD4+ T cells stained with hVISTA-loaded dextramers (circles) or with non-loaded dextramers (triangles) at various pH.
This blocking assay was performed as described in Example 4.
Background: A flow cytometer gives signals particle by particle.
With B1, the “IC50 (read off the curve)” value was roughly 0.05 µg/mL.
The same measure, in the same setting: for B10 the value was roughly 0.03 µg/mL.

The target in the next assay is T3, monovalent hVISTA-ECD (amino acids …). Briefly: SPR, mAb captured on Protein A, hVISTA-ECD analyte, 37 C, pH 6.0. The source holds these as a separate data set. On the procedure:
as §2, §3
In turn, B1 had a koff of 0.0082 s⁻¹.
Same read-out and setting: for B2 the value was 0.002 s⁻¹.
Same read-out and setting: for B3 the value was 0.002 s⁻¹.
B7: the koff was 0.0023 s⁻¹.
Same read-out and setting: for B8 the value was 0.0015 s⁻¹; for B9, 0.0015 s⁻¹.
Still for that read-out and setting: for B4 the value was 0.003 s⁻¹; for B5, 0.0012 s⁻¹; for B6, 0.0082 s⁻¹.

A further assay has the same target. Briefly: SPR, mAb captured on Protein A, hVISTA-ECD analyte, 37 C, pH 6.7. This is another data set of the same source. On the procedure: as §2, §3
The molecule B1 returned a koff of 0.0044 s⁻¹.
The molecule B2 had a koff of 0.0031 s⁻¹. The koff values of the last two molecules are within 1.5-fold of each other.
The same measure, in the same setting: for B3 the value was 0.0028 s⁻¹; for B7, 0.0085 s⁻¹.
Same read-out and setting: for B8 the value was 0.0067 s⁻¹.
On the same count and under the same terms, for B9 the value was 0.0055 s⁻¹; for B4, 0.0035 s⁻¹; for B5, 0.0018 s⁻¹.
For B6, the koff came out at 0.0047 s⁻¹.

For another assay the target is unchanged. Briefly: SPR, mAb on Protein A, 37C, pH 6.0. On the procedure: as §1
Molecule B1 came in with a Kd of 7.4 nM and a kon of 780000 M⁻¹ s⁻¹.
As for B10, binding was put at a Kd of 5.5 nM and the kon came to 280000 M⁻¹ s⁻¹.
